Measurements as given in patent publication US20240132578A1.

What was measured:
Test in all cases: cell-based or functional assay
[1] = target: HIV-1 envelope glycoprotein (Env) of isolate MGRM-C-012 (HIV-1)
[2] = target: HIV-1 MGRM-AE-007 Env (pseudovirus) (HIV-1)
[3] = target: HIV-1 Env of isolate MGRM-D-029 (clade D pseudovirus) (HIV-1)
[4] = target: HIV-1 envelope glycoprotein (Env) of isolate MGRM-C-014 (HIV-1)
[5] = target: HIV-1 Env of isolate MGRM-D-016 (clade D pseudovirus) (HIV-1)
[6] = target: HIV-1 MGRM-AE-005 Env (pseudovirus) (HIV-1)
[7] = target: HIV-1 Env of pseudovirus MGRM-F1-022 (clade F) (HIV-1)
[8] = target: HIV-1 Env of isolate MGRM-A-011 (clade A pseudovirus) (HIV-1)
[9] = target: HIV-1 Env of isolate MGRM-D-021 (clade D pseudovirus) (HIV-1)
[10] = target: HIV-1 Env of isolate CAAN.A2 (Acute), clade B (HIV-1)
[11] = target: HIV-1 Env of pseudovirus MGRM-F1-012 (clade F) (HIV-1)
[12] = target: HIV-1 APV-6 envelope (Env) on pseudovirus (HIV-1)
[13] = target: HIV-1 Env of isolate MGRM-A-004 (clade A pseudovirus) (HIV-1)
[14] = target: HIV-1 MGRM-G-004 Env (pseudovirus) (HIV-1)
[15] = target: HIV-1 APV-13 envelope (Env) on pseudovirus (HIV-1)
[16] = target: HIV-1 envelope glycoprotein (Env) of isolate MGRM-C-024 (HIV-1)
[17] = target: HIV-1 Env of isolate MGRM-G-001 (subtype G) (HIV-1)
[18] = target: HIV-1 MGRM-C-027 Env (HIV-1)
[19] = target: HIV-1 92UG005 Env (HIV-1)
[20] = target: HIV-1 envelope glycoprotein (Env) of isolate MG RM-A-010, subtype A (HIV-1)
[21] = target: HIV-1 envelope glycoprotein (Env) of isolate NL43, on pseudovirus (HIV-1)
[22] = target: HIV-1 92UG005 envelope protein (Env) on pseudovirus (HIV-1)
[23] = target: HIV-1 envelope glycoprotein (Env) of isolate THRO.18, on pseudovirus (HIV-1)
[24] = target: HIV-1 envelope glycoprotein (Env) of isolate 93WR029, subtype A (HIV-1)
[25] = target: HIV-1 JR-CSF Env F468A (HIV-1 (isolate JR-CSF)) (UniProt P20871)
[26] = target: HIV-1 Env of pseudovirus isolate MGRM-Chronic-B-001 (clade B) (HIV-1)
[27] = target: HIV-1 Env of isolate MG RM-A-010 (pseudovirus) (HIV-1)
[28] = target: HIV-1 Env of pseudovirus isolate CAAN.A2 (clade B) (HIV-1)
[29] = target: HIV-1 Env of isolate MGRM-C-017 (subtype C), on pseudovirus (HIV-1)
[30] = target: HIV-1 Env of isolate MG RM-A-009 (pseudovirus) (HIV-1)
[31] = target: HIV-1 Env of isolate MGRM-G-013 (subtype G) (HIV-1)
[32] = target: HIV-1 Env of pseudovirus isolate MGRM-C-019 (clade C) (HIV-1)
[33] = target: HIV-1 Env of isolate 92TH021 (subtype AE) (HIV-1)
[34] = target: HIV-1 Env of isolate CMU02 (subtype AE) (HIV-1)
[35] = target: HIV-1 Env of isolate MGRM-A-014 (subtype A) (HIV-1)
[36] = target: HIV-1 Env of isolate MGRM-AG-008 (subtype AG) (HIV-1)
[37] = target: HIV-1 Env of isolate MGRM-A-007 (subtype A) (HIV-1)
[38] = target: HIV-1 Env of isolate MGRM-D-018 (pseudovirus) (HIV-1)
[39] = target: HIV-1 Env of isolate MGRM-A-001 (pseudovirus) (HIV-1)

Chain of 4995_P16 (PGT-145) (antibody) (VH): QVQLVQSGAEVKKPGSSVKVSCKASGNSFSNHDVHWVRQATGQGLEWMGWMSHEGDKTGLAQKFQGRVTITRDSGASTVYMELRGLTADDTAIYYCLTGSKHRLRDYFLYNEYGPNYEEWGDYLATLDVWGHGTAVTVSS
Chain of 4995_P16 (PGT-145) (antibody) (VL): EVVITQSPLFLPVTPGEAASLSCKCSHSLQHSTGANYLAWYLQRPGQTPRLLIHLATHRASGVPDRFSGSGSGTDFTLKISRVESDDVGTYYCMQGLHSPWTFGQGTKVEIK
Chain of 4993_K13 (PGT-141) (antibody) (VH): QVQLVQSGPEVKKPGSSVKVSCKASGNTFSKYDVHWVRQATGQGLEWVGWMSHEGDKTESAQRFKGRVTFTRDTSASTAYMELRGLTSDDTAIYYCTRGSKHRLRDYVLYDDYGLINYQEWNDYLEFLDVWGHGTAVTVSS
Chain of 4993_K13 (PGT-141) (antibody) (VL): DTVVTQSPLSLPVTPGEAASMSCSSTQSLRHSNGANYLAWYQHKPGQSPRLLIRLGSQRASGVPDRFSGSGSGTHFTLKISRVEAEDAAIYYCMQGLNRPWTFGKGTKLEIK
Chain of 4980_N08 (PGT-143) (antibody) (VH): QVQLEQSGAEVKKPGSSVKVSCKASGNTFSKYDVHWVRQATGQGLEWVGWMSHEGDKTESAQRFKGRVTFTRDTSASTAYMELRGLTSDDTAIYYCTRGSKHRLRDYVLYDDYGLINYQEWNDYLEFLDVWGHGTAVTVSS
Chain of 4980_N08 (PGT-143) (antibody) (VL): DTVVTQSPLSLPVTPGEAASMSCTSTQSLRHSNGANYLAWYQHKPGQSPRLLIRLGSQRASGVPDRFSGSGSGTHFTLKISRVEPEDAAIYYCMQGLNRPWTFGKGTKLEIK
Chain of 4970_K22 (PGT-144) (antibody) (VH): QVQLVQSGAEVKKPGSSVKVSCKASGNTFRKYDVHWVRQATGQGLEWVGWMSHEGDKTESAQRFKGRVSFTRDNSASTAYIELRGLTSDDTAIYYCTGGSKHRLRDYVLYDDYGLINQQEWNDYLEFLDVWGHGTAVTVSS
Chain of 4970_K22 (PGT-144) (antibody) (VL): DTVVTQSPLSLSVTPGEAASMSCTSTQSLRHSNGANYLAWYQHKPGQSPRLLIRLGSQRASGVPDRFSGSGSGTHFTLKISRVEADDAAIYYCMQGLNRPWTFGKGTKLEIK
Chain of 4995_E20 (PGT-142) (antibody) (VH): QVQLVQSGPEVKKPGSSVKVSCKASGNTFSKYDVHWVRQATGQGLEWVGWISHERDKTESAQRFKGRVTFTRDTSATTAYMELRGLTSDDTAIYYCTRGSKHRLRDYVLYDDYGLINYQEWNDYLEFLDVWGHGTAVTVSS
Chain of 1443_C16 (PG16) (TCN-116) (antibody) (VH): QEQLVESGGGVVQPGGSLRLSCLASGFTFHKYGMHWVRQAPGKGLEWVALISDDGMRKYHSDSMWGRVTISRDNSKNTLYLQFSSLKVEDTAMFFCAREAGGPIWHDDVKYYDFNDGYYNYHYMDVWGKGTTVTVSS
Chain of 1443_C16 (PG16) (TCN-116) (antibody) (VL): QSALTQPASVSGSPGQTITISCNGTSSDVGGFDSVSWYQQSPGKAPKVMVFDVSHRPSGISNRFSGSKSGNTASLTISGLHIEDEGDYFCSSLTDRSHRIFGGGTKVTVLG

| Substance | IC50 (µg/ml), pseudovirus neutralization [1] | IC50 (µg/ml), pseudovirus neutralization [2] | IC50, pseudovirus neutralization [3] | IC50 (µg/ml), pseudovirus neutralization [4] | IC50, pseudovirus neutralization [5] | IC50 (µg/ml), pseudovirus neutralization [6] | IC50 [7] | IC50 (µg/ml), pseudovirus neutralization [8] | IC50, pseudovirus neutralization [9] | IC50 (µg/ml), pseudovirus neutralization [10] | IC50 [11] | neutralization IC50 [12] | IC50 (µg/ml), pseudovirus neutralization [13] | IC50 (µg/ml), pseudovirus neutralization [14] | neutralization IC50 [15] | IC50 (µg/ml), pseudovirus neutralization [16] | IC50 (µg/mL), pseudovirus neutralization [17] | IC50 (µg/mL), pseudovirus neutralization [31] | further results |
| --- | --- | --- | --- | --- | --- | --- | --- | --- | --- | --- | --- | --- | --- | --- | --- | --- | --- | --- | --- |
| 2F5 (antibody) | > 50 µg/mL | 0.07 µg/mL | > 50 µg/mL | > 50 µg/mL | 9.85 µg/mL | 0.14 µg/mL | 1.26 µg/mL | > 50 µg/mL | > 50 µg/mL | 23.1 µg/mL | > 50 µg/mL | 0.1 µg/mL | 7.49 µg/mL | > 50 µg/mL | 2.8 µg/mL | > 50 µg/mL | – | – | – |
| 2G12 (antibody) | > 50 µg/mL | > 50 µg/mL | > 50 µg/mL | > 50 µg/mL | > 50 µg/mL | > 50 µg/mL | > 50 µg/mL | > 50 µg/mL | 23 µg/mL | > 50 µg/mL | 1.81 µg/mL | 5.3 µg/mL | > 50 µg/mL | > 50 µg/mL | 23.9 µg/mL | > 50 µg/mL | – | – | – |
| 4E10 (antibody) | 0.44 µg/mL | 0.45 µg/mL | 5.3 µg/mL | 2.48 µg/mL | 15.4 µg/mL | 0.47 µg/mL | 1.01 µg/mL | 2.88 µg/mL | 13.3 µg/mL | 17.9 µg/mL | 0.37 µg/mL | 0.4 µg/mL | 3.14 µg/mL | 1.47 µg/mL | 3.8 µg/mL | 22.6 µg/mL | – | – | – |
| 1443_C16 (PG16) (TCN-116) (antibody) | 0.48 µg/mL | 0.04 µg/mL | > 50 µg/mL | > 50 µg/mL | 0.02 µg/mL | 0.02 µg/mL | 0.08 µg/mL | 0.24 µg/mL | > 50 µg/mL | 8.83 µg/mL | 0.003 µg/mL | 0.08 µg/mL | 0.04 µg/mL | > 50 µg/mL | > 50 µg/mL | 0.04 µg/mL | – | – | – |
| 1495_C14 (PGC14) (antibody) | > 50 µg/mL | > 50 µg/mL | > 50 µg/mL | > 50 µg/mL | > 50 µg/mL | > 50 µg/mL | > 50 µg/mL | > 50 µg/mL | > 50 µg/mL | > 50 µg/mL | > 50 µg/mL | 7.41 µg/mL | > 50 µg/mL | > 50 µg/mL | > 50 µg/mL | > 50 µg/mL | – | – | – |
| 1496_C09 (PG9) (TCN-109) (antibody) | 0.24 µg/mL | – | – | 0.64 µg/mL | 0.1 µg/mL | 0.16 µg/mL | 0.06 µg/mL | – | – | 5.67 µg/mL | 0.01 µg/mL | 0.0869 µg/mL | – | – | – | 0.22 µg/mL | 0.166 µg/mL | – | IC50, pseudovirus neutralization [18]: 2.45 µg/mL |
| 4838_L06 (PGT-121) (antibody) | – | – | – | – | – | – | – | – | – | – | – | – | – | – | – | – | – | – | IC50, pseudovirus neutralization [19]: > 10 µg/mL; IC50, pseudovirus neutralization [20]: 2.44 µg/mL; IC50, pseudovirus neutralization [21]: > 50 µg/mL; IC50 (ug/mL), pseudovirus neutralization [22]: > 10 µg/mL; IC50, pseudovirus neutralization [23]: > 50 µg/mL; IC50, pseudovirus neutralization [24]: > 50 µg/mL |
| 4858_P08 (PGT-123) (antibody) | – | – | – | – | – | – | – | – | – | – | – | – | – | – | – | – | – | – | IC50, pseudovirus neutralization [19]: 2.49 µg/mL; IC50, pseudovirus neutralization [20]: 0.705 µg/mL; IC50, pseudovirus neutralization [21]: > 50 µg/mL; IC50 (ug/mL), pseudovirus neutralization [22]: 2.49 µg/mL; IC50, pseudovirus neutralization [18]: 0.0169 µg/mL; IC50, pseudovirus neutralization [23]: > 50 µg/mL; Fold IC50 increase relative to wild-type (pseudovirus neutralization) [25]: 0.5 fold; IC50, pseudovirus neutralization [24]: > 50 µg/mL |
| 4877_D15 (PGT-122) (antibody) | – | – | – | – | – | – | – | – | – | – | – | – | – | – | – | – | – | – | IC50, pseudovirus neutralization [19]: > 10 µg/mL; IC50, pseudovirus neutralization [20]: 2.51 µg/mL; IC50, pseudovirus neutralization [21]: > 50 µg/mL; IC50 (ug/mL), pseudovirus neutralization [22]: > 10 µg/mL; IC50, pseudovirus neutralization [18]: 0.0388 µg/mL; IC50, pseudovirus neutralization [23]: > 50 µg/mL; IC50, pseudovirus neutralization [24]: > 50 µg/mL |
| 4970_K22 (PGT-144) (antibody) | – | – | – | – | – | – | – | – | – | – | – | – | – | – | – | – | > 50 µg/mL | > 50 µg/mL | IC50, pseudovirus neutralization [26]: > 50 µg/mL; IC50 (µg/mL), single-round pseudovirus neutralization [27]: 2.79 µg/mL; IC50, pseudovirus neutralization [28]: > 50 µg/mL; IC50, single-round pseudovirus neutralization [29]: 23 µg/mL; IC50 (µg/mL), single-round pseudovirus neutralization [30]: 2.83 µg/mL |
| 4980_N08 (PGT-143) (antibody) | – | – | – | – | – | – | – | – | – | – | – | – | – | – | – | – | 0.423 µg/mL | > 50 µg/mL | IC50, pseudovirus neutralization [26]: > 50 µg/mL; IC50 (µg/mL), single-round pseudovirus neutralization [27]: 0.019 µg/mL; IC50, pseudovirus neutralization [28]: > 50 µg/mL; IC50, single-round pseudovirus neutralization [29]: 5.17 µg/mL; IC50 (µg/mL), single-round pseudovirus neutralization [30]: 0.05 µg/mL |
| 4993_K13 (PGT-141) (antibody) | – | – | – | – | – | – | – | – | – | – | – | – | – | – | – | – | 0.392 µg/mL | > 50 µg/mL | IC50, pseudovirus neutralization [26]: > 50 µg/mL; IC50 (µg/mL), single-round pseudovirus neutralization [27]: 0.022 µg/mL; IC50, pseudovirus neutralization [28]: > 50 µg/mL; IC50, single-round pseudovirus neutralization [29]: 4.02 µg/mL; IC50 (µg/mL), single-round pseudovirus neutralization [30]: 0.029 µg/mL |
| 4995_E20 (PGT-142) (antibody) | – | – | – | – | – | – | – | – | – | – | – | – | – | – | – | – | 0.362 µg/mL | > 50 µg/mL | IC50, pseudovirus neutralization [26]: > 50 µg/mL; IC50 (µg/mL), single-round pseudovirus neutralization [27]: 0.015 µg/mL; IC50, pseudovirus neutralization [28]: > 50 µg/mL; IC50, single-round pseudovirus neutralization [29]: 1.11 µg/mL; IC50 (µg/mL), single-round pseudovirus neutralization [30]: 0.058 µg/mL |
| 4995_P16 (PGT-145) (antibody) | – | – | – | – | – | – | – | – | – | – | – | – | – | – | – | – | 0.028 µg/mL | > 50 µg/mL | IC50, pseudovirus neutralization [26]: 3.22 µg/mL; IC50 (µg/mL), single-round pseudovirus neutralization [27]: 0.028 µg/mL; IC50, pseudovirus neutralization [28]: 7.08 µg/mL; IC50, single-round pseudovirus neutralization [29]: > 50 µg/mL; IC50 (µg/mL), single-round pseudovirus neutralization [30]: 0.235 µg/mL |
| 5345_I01 (PGT-137) (antibody) | – | – | – | – | – | – | – | – | – | – | – | – | – | – | – | – | – | – | IC50, pseudovirus neutralization [32]: > 50 µg/mL; IC50, pseudovirus neutralization [33]: > 50 µg/mL; IC50, pseudovirus neutralization [34]: > 50 µg/mL; IC50, pseudovirus neutralization [35]: 18.6 µg/mL; IC50, pseudovirus neutralization [36]: > 50 µg/mL; IC50, pseudovirus neutralization [37]: > 50 µg/mL; IC50 (µg/mL), pseudovirus neutralization [38]: 15.1 µg/mL; IC50 (µg/mL), pseudovirus neutralization [39]: > 50 µg/mL |
| PGV04 (antibody) | – | – | – | – | – | – | – | – | – | – | – | – | – | – | – | – | > 50 µg/mL | 0.168 µg/mL | – |
| b12 (antibody) | > 50 µg/mL | > 50 µg/mL | > 50 µg/mL | > 50 µg/mL | 1.12 µg/mL | 0.63 µg/mL | > 50 µg/mL | 4.01 µg/mL | 5.23 µg/mL | > 50 µg/mL | > 50 µg/mL | > 25 µg/mL | > 50 µg/mL | > 50 µg/mL | > 25 µg/mL | > 50 µg/mL | – | – | – |
